Data set [1] deals with G. max ALS1 protein. Description: Colorimetric ALS kinetic assay (Km, kcat) with pyruvate as substrate. The class given is biochemical, Glycine max. On the procedure:
A survey of known ALS (AcetoLactate Synthase) gene variants (Table 2) was performed, and a number of ALS variants were selected for kinetic evaluation based on breadth and strength of insensitivity to ALS-inhibitor herbicides as well as kinetic activity parameters including the ratio of substrate preferences. The selected ALS gene variants (Table 3) were generated by PCR mediated site-directed mutagenesis. Finnzymes PHUSION® DNA polymerase (Cat. No. F-530S) was used for the PCR reactions, following the instructions for recommended temperatures and cycles in the PHUSION® protocol. Some mutagenesis reactions were assisted by the use of IN-FUSION® enzyme (Clontech Cat. No. 639620) to circularize a linear plasmid with the mutation located within the 15 nucleotide overlapping ends, via recombination following the manufacturer's protocol for primer design and reaction conditions. The ALS genes, beginning with encoded amino acids SISK, (S48 to K51 in the G. max ALS1 protein (SEQ ID NO:1) corresponding to the mature protein N-terminus of the chloroplast localized enzyme), were cloned into the PMAL® E. coli expression vector (New England Biolabs) to express ALS as a fusion protein with a Maltose-Binding Protein (MBP) at the N-terminus with a thrombin site for cleavage and a His-6 tag for affinity purification. All in vitro protein characterization described in the examples was carried out with the isolated proteins after cleavage from the His-MBP fusion partner.
Km and Kcat determinations for recombinant ALS variants (with respect to pyruvate as the substrate) were performed using a colorimetric assay. ALS assays were carried out in 96-well microplates with 150 ul reaction containing 25 mM potassium phosphate, 0.2 mg/ml BSA, 15 mM MgCl2, 0.7 mM TPP, 28 uM FAD and 0-100 mM sodium pyruvate. Reactions were initiated by the addition of ALS enzyme to a final amount of 0.8 ug/well. Parameters for Km and Vmax were determined by fitting the velocity versus substrate concentration data to a rectangular hyperbola using GraphPad Prism software. Kcat values were determined from Vmax based on protein concentration in the reactions.

For data set [2], the system named is G. max ALS1 protein. Description: Substrate specificity ratio (Rf), pyruvate versus 2-ketobutyrate, LC-MS of reduced products. It is filed as biochemical, Glycine max. As to conditions: ratio of [pyruvate] to [2-ketobutyrate] giving equal rates of acetolactate and acetohydroxybutyrate formation, 25 mM pyruvate. The source says:
The “substrate specificity ratio”, or “Rf”, characterizes the specificity of the ALS enzyme for AHB formation relative to AL formation (Gollop et al. (1989) Biochemistry 28:6310-6317). Rf is the ratio of [pyruvate] to [2-ketobutyrate] that results in equal rates of formation of acetolactate and acetohydroxybutyrate. Rf is a constant at all substrate concentrations. The substrate specificity ratio is ˜114 for the wild type Glycine max ALS1 enzyme (SEQ ID NO:1) compared to ˜3 for the highly resistant allele (HRA) double mutant variant (SEQ ID NO: 10) of the Glycine max ALS1. The soybean HRA sequence is disclosed, for example, in WO2007/024782, herein incorporated by reference.
Substrate preference was determined using the assay described in Example 3; however, the assay was conducted using a constant concentration of pyruvate (25 mM) and varying concentrations of the second substrate, 2-ketobutyrate. Each reaction involving a specific ratio of pyruvate to 2-ketobutyrate, after a set period of time, was quenched by addition of sodium borohydride (7-fold excess) to form the reduced adducts of the products of the two substrates namely; reduced acetolactate for the reaction with pyruvate and reduced aceto hydroxybutyrate for the 2-ketobutyrate reaction. The relative amounts of the two reduced products was determined by first, chromatographic separation using a 4.6×250 mm dC18 column (Atlantis) equilibrated with a 0.1% formic acid solution and subsequent elution using a methanol gradient at 0.7 ml/min, followed by detection using a Thermo FINNIGAN® LTQ® Mass Spectrometer (MS). The products of the two reactions were quantified by integration of the MS signals. The % of the amount of each of the reduced products was then plotted versus the concentration of 2-ketobutyrate. As the 2-ketobutyrate amount increased there was a consequent increase in reduced acetohydroxybutyrate (AHB) and decrease in reduced acetolactate (AL). […] The substrate specificity ratio was ˜114 for the wild type enzyme compared to 3 for the highly resistant allele (HRA) double mutant ALS variant (SEQ ID NO: 10).

Where a chain is given by its changes, count along the chain named. In names and notes the source's numbering stands.

B1: GM-ALS_P178A_W555L: highly resistant allele (HRA) double mutant of Glycine max ALS1: P→A at 178 and W→L at 555 (protein)
chain: MAATASRTTRFSSSSSHPTFPKRITRSTLPLSHQTLTKPNHALKIKCSISKPPTAAPFTKEAPTTEPFVSRFASGEPRKGADILVEALERQGVTTVFAYPGGASMEIHQALTRSAAIRNVLPRHEQGGVFAAEGYARSSGLPGVCIATSGPGATNLVSGLADALMDSVPVVAITGQVARRMIGTDAFQETPIVEVSRSITKHNYLILDVDDIPRVVAEAFFVATSGRPGPVLIDIPKDVQQQLAVPNWDEPVNLPGYLARLPRPPAEAQLEHIVRLIMEAQKPVLYVGGGSLNSSAELRRFVELTGIPVASTLMGLGTFPIGDEYSLQMLGMHGTVYANYAVDNSDLLLAFGVRFDDRVTGKLEAFASRAKIVHIDIDSAEIGKNKQAHVSVCADLKLALKGINMILEEKGVEGKFDLGGWREEINVQKHKFPLGYKTFQDAISPQHAIEVLDELTNGDAIVSTGVGQHQMWAAQFYKYKRPRQWLTSGGLGAMGFGLPAAIGAAVANPGAVVVDIDGDGSFIMNVQELATIRVENLPVKILLLNNQHLGMVVQLEDRFYKSNRAHTYLGDPSSESEIFPNMLKFADACGIPAARVTKKEELRAAIQRMLDTPGPYLLDVIVPHQEHVLPMIPSNGSFKDVITEGDGRTRY
modifications: ALS1 variant P178A W555L
In general, Km refers to the concentration of substrate that gives half-maximal velocity. One may read the kcat as the maximal rate divided by the concentration of active sites. As for B1, in the data set on G. max ALS1 protein [1], the Km is 15 mM and the kcat came to 1.5 s⁻¹. The “Substrate specificity ratio (Rf)” value in the data set with G. max ALS1 protein [2] is 2.9. Moreover, in the data set on G. max ALS1 protein [2] (listed as HRA), the “Substrate specificity ratio (Rf)” value was found to be 3.

B2: GM-ALS_A103T_P178S: Glycine Max ALS1 with A→T at position 103 and P→S at position 178 (protein)
chain: B1 chain with A103T, A178S, L555W
modifications: ALS1 variant A103T P178S
Regarding B2, in the data set with G. max ALS1 protein [1], the Km was 10 mM and the kcat is 2.08 s⁻¹. For the same molecule, the “Substrate specificity ratio (Rf)” value in the data set with G. max ALS1 protein [2] is reported as 75.0.

B3: GM-ALS_A103T_P178S_D357E: Glycine Max ALS1 with A→T at 103, P→S at 178 and D→E at 357 (protein)
chain: B1 chain with A103T, A178S, D357E, L555W
modifications: ALS1 variant A103T P178S D357E
Regarding B3, in the data set on G. max ALS1 protein [1], the Km is 21 mM and the kcat stood at 1.05 s⁻¹. Further, the “Substrate specificity ratio (Rf)” value in the data set on G. max ALS1 protein [2] turned out to be 114.0.

B4: GM-ALS_G102S_D357E: Glycine Max ALS1 with G→S at position 102 and D→E at position 357 (protein)
chain: B1 chain with G102S, A178P, D357E, L555W
modifications: ALS1 variant G102S D357E
For B4, in the data set with G. max ALS1 protein [1], the Km was 8 mM and the kcat turned out to be 1.75 s⁻¹. Also, the “Substrate specificity ratio (Rf)” value with G. max ALS1 protein [2] was 16.9.

B5: GM-ALS_G102S_P178S: Glycine Max ALS1 with G→S at position 102 and P→S at position 178 (protein)
chain: B1 chain with G102S, A178S, L555W
modifications: ALS1 variant G102S P178S
Take B5: in the data set with G. max ALS1 protein [1], the Km was determined as 5 mM and the turnover number (kcat) was determined as 1.47 s⁻¹. For the same molecule, the “Substrate specificity ratio (Rf)” value in the data set with G. max ALS1 protein [2] was 12.0.

B6: GM-ALS_P178L_W555L: Glycine Max ALS1 with P→L at position 178 and W→L at position 555 (protein)
chain: B1 chain with A178L
modifications: ALS1 variant P178L W555L
With B6, in the data set on G. max ALS1 protein [1], the Km was 36 mM and the kcat was found to be 0.35 s⁻¹. Also, the “Substrate specificity ratio (Rf)” value with G. max ALS1 protein [2] is listed as 2.7.

B7: GM-ALS_P178A_F559D: Glycine Max ALS1 with P→A at position 178 and F→D at position 559 (protein)
chain: B1 chain with L555W, F559D
modifications: ALS1 variant P178A F559D
With B7, in the data set with G. max ALS1 protein [1], the Km is 40 mM and the kcat is 0.6 s⁻¹. In the data set with G. max ALS1 protein [2], the “Substrate specificity ratio (Rf)” value turned out to be 100.0.

B8: GM-ALS_P178S: Glycine Max ALS1 variant with a P→S mutation at position 178 (protein)
chain: B1 chain with A178S, L555W
modifications: ALS1 variant P178S
B8: in the data set with G. max ALS1 protein [1], the Km worked out at 1.6 mM and the kcat came to 1.15 s⁻¹. Besides, the “Substrate specificity ratio (Rf)” value in the data set with G. max ALS1 protein [2] turned out to be 104.0.

B9: GM-ALS_P178Q: Glycine Max ALS1 variant with a P→Q mutation at position 178 (protein)
chain: B1 chain with A178Q, L555W
modifications: ALS1 variant P178Q
B9: in the data set with G. max ALS1 protein [1], the Km was 3 mM and the kcat worked out at 2.72 s⁻¹. Besides, the “Substrate specificity ratio (Rf)” value in the data set on G. max ALS1 protein [2] is reported as 86.0.

B10: GM-ALS_P178A: Glycine Max ALS1 variant with a P→A mutation at position 178 (protein)
chain: B1 chain with L555W
modifications: ALS1 variant P178A
Take B10: in the data set on G. max ALS1 protein [1], the Km was 5 mM and the kcat is 1.08 s⁻¹. Moreover, the “Substrate specificity ratio (Rf)” value in the data set on G. max ALS1 protein [2] is 119.0.

B11: GM-ALS_P178L: Glycine Max ALS1 variant with a P→L mutation at position 178 (protein)
chain: B1 chain with A178L, L555W
modifications: ALS1 variant P178L
In the case of B11, in the data set on G. max ALS1 protein [1], the Km is 14.8 mM and the kcat amounted to 4.18 s⁻¹. For the same molecule, in the data set with G. max ALS1 protein [2], the “Substrate specificity ratio (Rf)” value came out at 119.0.

B12: GM-ALS_G102S: Glycine Max ALS1 variant with a G→S mutation at position 102 (protein)
chain: B1 chain with G102S, A178P, L555W
modifications: ALS1 variant G102S
Take B12: in the data set with G. max ALS1 protein [1], the Km stood at 3.5 mM and the kcat was 1.33 s⁻¹. In addition, the “Substrate specificity ratio (Rf)” value with G. max ALS1 protein [2] was determined as 10.2.

B13: GM-ALS_P178S_D357E: Glycine Max ALS1 with P→S at position 178 and D→E at position 357 (protein)
chain: B1 chain with A178S, D357E, L555W
modifications: ALS1 variant P178S D357E
For B13, in the data set with G. max ALS1 protein [1], the Km was 6 mM and the kcat stood at 3.17 s⁻¹. Moreover, the “Substrate specificity ratio (Rf)” value in the data set on G. max ALS1 protein [2] is recorded as 100.0.

B14: GM-ALS_A103T: Glycine Max ALS1 variant with a A→T mutation at position 103 (protein)
chain: B1 chain with A103T, A178P, L555W
modifications: ALS1 variant A103T
B14: in the data set on G. max ALS1 protein [1], the Km is 3 mM and the kcat was determined as 1.82 s⁻¹. Further, the “Substrate specificity ratio (Rf)” value in the data set on G. max ALS1 protein [2] came to 83.3.

B15: GM-ALS_G102S_D357N: Glycine Max ALS1 with G→S at position 102 and D→N at position 357 (protein)
chain: B1 chain with G102S, A178P, D357N, L555W
modifications: ALS1 variant G102S D357N
Turning to B15, in the data set with G. max ALS1 protein [1], the Km was determined as 11 mM and the kcat was found to be 1.13 s⁻¹. Further, the “Substrate specificity ratio (Rf)” value in the data set on G. max ALS1 protein [2] came out at 10.7.

These data come from patent US10294487B2, “Methods and compositions involving ALS variants with native substrate preference” (E I DU PONT DE NEMOURS AND COMPANY, priority 2012, dated 2019).
